In patent publication US20200270588A1, “GLUCOSYL TRANSFERASE POLYPEPTIDES AND METHODS OF USE” (Syngenta Participations AG, priority 2017, published 2020):

Experiments:
[1] = UDP luminescence plate assay of E. coli extracts, saturation mutants of SEQ ID NO: 1, herbicide V; type: biochemical, Zea mays; settings: improvement factor relative to w/t bx9 = 1.0, rounded to nearest 0.5; extract activity basis; compound V
[2] = UDP luminescence plate assay of E. coli extracts, mutants of SEQ ID No: 1, 2 mM metribuzin; type: biochemical, Zea mays; settings: for SIGNAL: metribuzin signal of mutant divided by the signal of w/t bx9 / luminescence signal observed with 2 mM metribuzin: 2 mM metribuzin; for SIGNAL: metribuzin signal of mutant divided by the signal of w/t bx9: relative to bx9 w/t; for luminescence signal in the DMSO control: mutants of SEQ ID No: 1, DMSO in place of metribuzin (background UDP-glucose hydrolysis); for luminescence signal observed with 2 mM metribuzin: mutants of SEQ ID No: 1 in E. coli extracts, UDP luminescence
In short: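 Extracts of E. coli BL21 DE3 expressing C-terminally His-tagged SEQ ID NO:1 variants incubated with 2 mM metribuzin; UDP formed read by UDP-Glo luminescence against a UDP standard curve, with optional 95 C stop. Mutants ranked by metribuzin/DMSO signal ratio and signal increase over wild-type bx9.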

B1: A281C: bx9 SEQ ID NO:1 mutant (protein)
chain: MASSRTGAGAGGRVVVFPFPFQGHFNPVMRLARALHARGLAITVFHSGALDPADYPADYRFVPVTVEADPKLLASEDIAAIVTTLNASCDAPFRARLSALLAAEGRDSVRCVFTDVSWNAVLTASSDLGVPALGMMTASAASLRDYMAYRTLIDKGYLPVKEERKEDPVPELPPYLVKDLLRVDTSDLEEFAELLARTVTAARRASGLIFNTFPLIETDTLAEIHKALSVPVFAVAPLNKLVPTATASLHGVVQADRGCLQWLDTQQPGSVLYVSFGSMACMDPHEFVELAWGLADSKRPFVWVVRPNLIRGFESGALPDGVEDEVRGRGIVVAWAPQEEVLAHPAVGGFLTHNGWNSTVEAISEGVPMVCCPRHGDQFGNMRYVCDVWKVGTELVGEQLERGQVKAAIDRLFGTKEGEEIKERMKEFKIAAAKGIGIGVDVDETASPRTDLTDLVDLIKSF
modifications: Zea mays
For B1, the “Most Preferred amino acid substitutions and (IF) based on RLU/min/ul” value [1] was “C,Q(3.0)”, the “SIGNAL: metribuzin signal of mutant divided by the signal of w/t bx9” value [2] was 1.58 and the “luminescence signal in the DMSO control” value [2] was 4.80E+05. For the same molecule, the “luminescence signal observed with 2 mM metribuzin” value [2] was 4.43E+05.

B2: A281Q: bx9 SEQ ID NO:1 mutant (protein)
chain: MASSRTGAGAGGRVVVFPFPFQGHFNPVMRLARALHARGLAITVFHSGALDPADYPADYRFVPVTVEADPKLLASEDIAAIVTTLNASCDAPFRARLSALLAAEGRDSVRCVFTDVSWNAVLTASSDLGVPALGMMTASAASLRDYMAYRTLIDKGYLPVKEERKEDPVPELPPYLVKDLLRVDTSDLEEFAELLARTVTAARRASGLIFNTFPLIETDTLAEIHKALSVPVFAVAPLNKLVPTATASLHGVVQADRGCLQWLDTQQPGSVLYVSFGSMAQMDPHEFVELAWGLADSKRPFVWVVRPNLIRGFESGALPDGVEDEVRGRGIVVAWAPQEEVLAHPAVGGFLTHNGWNSTVEAISEGVPMVCCPRHGDQFGNMRYVCDVWKVGTELVGEQLERGQVKAAIDRLFGTKEGEEIKERMKEFKIAAAKGIGIGVDVDETASPRTDLTDLVDLIKSF
modifications: Zea mays
In the case of B2, the “Most Preferred amino acid substitutions and (IF) based on RLU/min/ul” value [1] is reported as “C,Q(3.0)”, the “SIGNAL: metribuzin signal of mutant divided by the signal of w/t bx9” value [2] is reported as 2.82 and the “luminescence signal in the DMSO control” value [2] is reported as 7.59E+05. For the same molecule, the “luminescence signal observed with 2 mM metribuzin” value [2] was 7.89E+05.

B3: T220A: bx9 SEQ ID NO:1 mutant (protein)
chain: MASSRTGAGAGGRVVVFPFPFQGHFNPVMRLARALHARGLAITVFHSGALDPADYPADYRFVPVTVEADPKLLASEDIAAIVTTLNASCDAPFRARLSALLAAEGRDSVRCVFTDVSWNAVLTASSDLGVPALGMMTASAASLRDYMAYRTLIDKGYLPVKEERKEDPVPELPPYLVKDLLRVDTSDLEEFAELLARTVTAARRASGLIFNTFPLIETDALAEIHKALSVPVFAVAPLNKLVPTATASLHGVVQADRGCLQWLDTQQPGSVLYVSFGSMAAMDPHEFVELAWGLADSKRPFVWVVRPNLIRGFESGALPDGVEDEVRGRGIVVAWAPQEEVLAHPAVGGFLTHNGWNSTVEAISEGVPMVCCPRHGDQFGNMRYVCDVWKVGTELVGEQLERGQVKAAIDRLFGTKEGEEIKERMKEFKIAAAKGIGIGVDVDETASPRTDLTDLVDLIKSF
modifications: Zea mays
With B3 the “Preferred amino acid substitutions and (IF) based on RLU/min/ul” value [1] was “C,A,N,E,L,I,M(1.5)”.

B4: T220N: bx9 SEQ ID NO:1 mutant (protein)
chain: MASSRTGAGAGGRVVVFPFPFQGHFNPVMRLARALHARGLAITVFHSGALDPADYPADYRFVPVTVEADPKLLASEDIAAIVTTLNASCDAPFRARLSALLAAEGRDSVRCVFTDVSWNAVLTASSDLGVPALGMMTASAASLRDYMAYRTLIDKGYLPVKEERKEDPVPELPPYLVKDLLRVDTSDLEEFAELLARTVTAARRASGLIFNTFPLIETDNLAEIHKALSVPVFAVAPLNKLVPTATASLHGVVQADRGCLQWLDTQQPGSVLYVSFGSMAAMDPHEFVELAWGLADSKRPFVWVVRPNLIRGFESGALPDGVEDEVRGRGIVVAWAPQEEVLAHPAVGGFLTHNGWNSTVEAISEGVPMVCCPRHGDQFGNMRYVCDVWKVGTELVGEQLERGQVKAAIDRLFGTKEGEEIKERMKEFKIAAAKGIGIGVDVDETASPRTDLTDLVDLIKSF
modifications: Zea mays
In the case of B4, the “Preferred amino acid substitutions and (IF) based on RLU/min/ul” value [1] is reported as “C,A,N,E,L,I,M(1.5)”.

B5: T220E: bx9 SEQ ID NO:1 mutant (protein)
chain: MASSRTGAGAGGRVVVFPFPFQGHFNPVMRLARALHARGLAITVFHSGALDPADYPADYRFVPVTVEADPKLLASEDIAAIVTTLNASCDAPFRARLSALLAAEGRDSVRCVFTDVSWNAVLTASSDLGVPALGMMTASAASLRDYMAYRTLIDKGYLPVKEERKEDPVPELPPYLVKDLLRVDTSDLEEFAELLARTVTAARRASGLIFNTFPLIETDELAEIHKALSVPVFAVAPLNKLVPTATASLHGVVQADRGCLQWLDTQQPGSVLYVSFGSMAAMDPHEFVELAWGLADSKRPFVWVVRPNLIRGFESGALPDGVEDEVRGRGIVVAWAPQEEVLAHPAVGGFLTHNGWNSTVEAISEGVPMVCCPRHGDQFGNMRYVCDVWKVGTELVGEQLERGQVKAAIDRLFGTKEGEEIKERMKEFKIAAAKGIGIGVDVDETASPRTDLTDLVDLIKSF
modifications: Zea mays
For B5, the “Preferred amino acid substitutions and (IF) based on RLU/min/ul” value [1] was “C,A,N,E,L,I,M(1.5)”.

B6: T220L: bx9 SEQ ID NO:1 mutant (protein)
chain: MASSRTGAGAGGRVVVFPFPFQGHFNPVMRLARALHARGLAITVFHSGALDPADYPADYRFVPVTVEADPKLLASEDIAAIVTTLNASCDAPFRARLSALLAAEGRDSVRCVFTDVSWNAVLTASSDLGVPALGMMTASAASLRDYMAYRTLIDKGYLPVKEERKEDPVPELPPYLVKDLLRVDTSDLEEFAELLARTVTAARRASGLIFNTFPLIETDLLAEIHKALSVPVFAVAPLNKLVPTATASLHGVVQADRGCLQWLDTQQPGSVLYVSFGSMAAMDPHEFVELAWGLADSKRPFVWVVRPNLIRGFESGALPDGVEDEVRGRGIVVAWAPQEEVLAHPAVGGFLTHNGWNSTVEAISEGVPMVCCPRHGDQFGNMRYVCDVWKVGTELVGEQLERGQVKAAIDRLFGTKEGEEIKERMKEFKIAAAKGIGIGVDVDETASPRTDLTDLVDLIKSF
modifications: Zea mays
With B6 the “Preferred amino acid substitutions and (IF) based on RLU/min/ul” value [1] was “C,A,N,E,L,I,M(1.5)”.

B7: T220I: bx9 SEQ ID NO:1 mutant (protein)
chain: MASSRTGAGAGGRVVVFPFPFQGHFNPVMRLARALHARGLAITVFHSGALDPADYPADYRFVPVTVEADPKLLASEDIAAIVTTLNASCDAPFRARLSALLAAEGRDSVRCVFTDVSWNAVLTASSDLGVPALGMMTASAASLRDYMAYRTLIDKGYLPVKEERKEDPVPELPPYLVKDLLRVDTSDLEEFAELLARTVTAARRASGLIFNTFPLIETDILAEIHKALSVPVFAVAPLNKLVPTATASLHGVVQADRGCLQWLDTQQPGSVLYVSFGSMAAMDPHEFVELAWGLADSKRPFVWVVRPNLIRGFESGALPDGVEDEVRGRGIVVAWAPQEEVLAHPAVGGFLTHNGWNSTVEAISEGVPMVCCPRHGDQFGNMRYVCDVWKVGTELVGEQLERGQVKAAIDRLFGTKEGEEIKERMKEFKIAAAKGIGIGVDVDETASPRTDLTDLVDLIKSF
modifications: Zea mays
With B7 the “Preferred amino acid substitutions and (IF) based on RLU/min/ul” value [1] was “C,A,N,E,L,I,M(1.5)”.

B8: T220M: bx9 SEQ ID NO:1 mutant (protein)
chain: MASSRTGAGAGGRVVVFPFPFQGHFNPVMRLARALHARGLAITVFHSGALDPADYPADYRFVPVTVEADPKLLASEDIAAIVTTLNASCDAPFRARLSALLAAEGRDSVRCVFTDVSWNAVLTASSDLGVPALGMMTASAASLRDYMAYRTLIDKGYLPVKEERKEDPVPELPPYLVKDLLRVDTSDLEEFAELLARTVTAARRASGLIFNTFPLIETDMLAEIHKALSVPVFAVAPLNKLVPTATASLHGVVQADRGCLQWLDTQQPGSVLYVSFGSMAAMDPHEFVELAWGLADSKRPFVWVVRPNLIRGFESGALPDGVEDEVRGRGIVVAWAPQEEVLAHPAVGGFLTHNGWNSTVEAISEGVPMVCCPRHGDQFGNMRYVCDVWKVGTELVGEQLERGQVKAAIDRLFGTKEGEEIKERMKEFKIAAAKGIGIGVDVDETASPRTDLTDLVDLIKSF
modifications: Zea mays
In the case of B8, the “Preferred amino acid substitutions and (IF) based on RLU/min/ul” value [1] is reported as “C,A,N,E,L,I,M(1.5)”.

B9: T220K: bx9 SEQ ID NO:1 mutant (protein)
chain: MASSRTGAGAGGRVVVFPFPFQGHFNPVMRLARALHARGLAITVFHSGALDPADYPADYRFVPVTVEADPKLLASEDIAAIVTTLNASCDAPFRARLSALLAAEGRDSVRCVFTDVSWNAVLTASSDLGVPALGMMTASAASLRDYMAYRTLIDKGYLPVKEERKEDPVPELPPYLVKDLLRVDTSDLEEFAELLARTVTAARRASGLIFNTFPLIETDKLAEIHKALSVPVFAVAPLNKLVPTATASLHGVVQADRGCLQWLDTQQPGSVLYVSFGSMAAMDPHEFVELAWGLADSKRPFVWVVRPNLIRGFESGALPDGVEDEVRGRGIVVAWAPQEEVLAHPAVGGFLTHNGWNSTVEAISEGVPMVCCPRHGDQFGNMRYVCDVWKVGTELVGEQLERGQVKAAIDRLFGTKEGEEIKERMKEFKIAAAKGIGIGVDVDETASPRTDLTDLVDLIKSF
modifications: Zea mays
For B9, the “Most Preferred amino acid substitutions and (IF) based on RLU/min/ul” value [1] was 3.0.

B10: T220Y: bx9 SEQ ID NO:1 mutant (protein)
chain: MASSRTGAGAGGRVVVFPFPFQGHFNPVMRLARALHARGLAITVFHSGALDPADYPADYRFVPVTVEADPKLLASEDIAAIVTTLNASCDAPFRARLSALLAAEGRDSVRCVFTDVSWNAVLTASSDLGVPALGMMTASAASLRDYMAYRTLIDKGYLPVKEERKEDPVPELPPYLVKDLLRVDTSDLEEFAELLARTVTAARRASGLIFNTFPLIETDYLAEIHKALSVPVFAVAPLNKLVPTATASLHGVVQADRGCLQWLDTQQPGSVLYVSFGSMAAMDPHEFVELAWGLADSKRPFVWVVRPNLIRGFESGALPDGVEDEVRGRGIVVAWAPQEEVLAHPAVGGFLTHNGWNSTVEAISEGVPMVCCPRHGDQFGNMRYVCDVWKVGTELVGEQLERGQVKAAIDRLFGTKEGEEIKERMKEFKIAAAKGIGIGVDVDETASPRTDLTDLVDLIKSF
modifications: Zea mays
With B10 the “Most Preferred amino acid substitutions and (IF) based on RLU/min/ul” value [1] was 3.5.
